Assay results from publication PMC10771525 (Communications Biology, 2024).
Where two headings read alike, the source gives them in different places.

Key:
[1] = tested on: MTNR1A; assay: GPCR panel (control), Arrestin, CHO-K1; assay type: cell-based, human; conditions: reference agonist
[2] = tested on: MTNR1B; assay: GPCR panel (control), Arrestin, CHO-K1; assay type: cell-based, human; conditions: reference agonist
[3] = target: T1, MRGPRX2 (Homo sapiens, UniProt Q96LB1); assay: calcium mobilization assay, CHEM-1 cells recombinantly expressing MRGPRX2; assay type: cell-based; set-up: host or cells: CHEM-1 adherent rat hematopoietic cells; conditions: for MRGPRX2 activation, Readout 1 / MRGPRX2 activation, Readout 2: Fig. 3b, fragment 1 µM, normalized to 1 µM CXCL14 (100%); for MRGPRX2 activation (in words): large CXCL14 fragments, CHEM1 cells overexpressing MRGPRX2; for EC50: Fluo-8, FLIPR, read-out: EC50, calcium mobilization assays; for pEC50: Fig. 3d
T1 sequence (Q96LB1 1-330): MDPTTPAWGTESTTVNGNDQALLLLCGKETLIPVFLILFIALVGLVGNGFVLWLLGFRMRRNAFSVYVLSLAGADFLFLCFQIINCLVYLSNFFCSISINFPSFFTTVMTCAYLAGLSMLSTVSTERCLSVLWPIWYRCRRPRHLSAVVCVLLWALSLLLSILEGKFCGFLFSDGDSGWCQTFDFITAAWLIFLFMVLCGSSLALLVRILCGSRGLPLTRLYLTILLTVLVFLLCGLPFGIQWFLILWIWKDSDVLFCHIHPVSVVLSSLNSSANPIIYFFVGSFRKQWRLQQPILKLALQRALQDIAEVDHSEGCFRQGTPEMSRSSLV
Source text: To confirm the initial results obtained in the β-arrestin recruitment assays, we established calcium mobilization assays in two different recombinant cell lines, CHEM-1 and LN229 cells, respectively. CHEM-1 cells are adherent rat hematopoietic cells with a high endogenous expression level of the promiscuous Gα15 protein enabling the measuring of calcium signaling of a large variety of GPCRs. […]. Subsequently, we employed recombinant human glioblastoma LN229 cells, a human cell line derived from glioblastoma multiforme tumors. […].
The cell lines CHEM1 and CHEM1-MRGPRX2 are adherent rat cell lines (HTSCHEM-1RTA, HTS058RTA, Merck-Millipore, Darmstadt, Germany); which were cultured under standard cell culture conditions.
A cell-based fluorometric assay was employed for the determination of intracellular calcium release using Fluo-8. Cells were seeded into microtiter plates and incubated under standard cell culture conditions. After 24 h the medium was removed, and the cells were washed with phosphate-buffered saline (PBS). The cells were incubated with loading buffer (40 ml PBS with 2 mM Ca^2+, 800 µl of brilliant black solution (2%), 732 µl of probenecid solution (0.5 M) in 1 N NaOH, 400 µL of pluronic (10%) in water, and 152 µl of Fluo-8 (5.7 ng/ml in water)) for 30 min. For fluorescence readout and compound testing a FLIPR tetra system was used according to the manufacture’s protocol (Molecular Devices, CA 94089- 1136, USA).

[4] = target: T2, KISS1R (Homo sapiens, UniProt Q969F8); assay: GPCR panel (control), Arrestin, U2OS; assay type: cell-based
T2 construct: expressed in transfected cells; host or cells: U2OS
T2 sequence (Q969F8 whole entry): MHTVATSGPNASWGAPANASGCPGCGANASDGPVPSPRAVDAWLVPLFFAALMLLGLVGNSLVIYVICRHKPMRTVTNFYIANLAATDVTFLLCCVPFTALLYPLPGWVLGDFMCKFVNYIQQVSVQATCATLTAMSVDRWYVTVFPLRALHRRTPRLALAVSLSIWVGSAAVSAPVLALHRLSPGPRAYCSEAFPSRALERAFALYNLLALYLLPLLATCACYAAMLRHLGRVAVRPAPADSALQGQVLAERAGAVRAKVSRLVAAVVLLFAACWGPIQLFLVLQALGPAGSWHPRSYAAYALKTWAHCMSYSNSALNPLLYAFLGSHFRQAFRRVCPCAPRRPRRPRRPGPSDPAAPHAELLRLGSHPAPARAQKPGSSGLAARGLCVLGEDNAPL

[5] = target: MRGPRX2 fused to ProLink (PK), in CHO β-arrestin cells (human) (UniProt Q96LB1)
[6] = target: MRGPRX2 in the calcium mobilization assays of the small CXCL14 fragments and mutants (human) (UniProt Q96LB1)
[7] = target: MRGPRX2 in the calcium mobilization assays of the small CXCL14 fragments and mutants (human) (UniProt Q96LB1); remark: listed apart in the source
[8] = target: T3, mouse MRGPRB2 in 1321N1 astrocytoma cells (mouse) (UniProt Q3KNA1)
T3 sequence: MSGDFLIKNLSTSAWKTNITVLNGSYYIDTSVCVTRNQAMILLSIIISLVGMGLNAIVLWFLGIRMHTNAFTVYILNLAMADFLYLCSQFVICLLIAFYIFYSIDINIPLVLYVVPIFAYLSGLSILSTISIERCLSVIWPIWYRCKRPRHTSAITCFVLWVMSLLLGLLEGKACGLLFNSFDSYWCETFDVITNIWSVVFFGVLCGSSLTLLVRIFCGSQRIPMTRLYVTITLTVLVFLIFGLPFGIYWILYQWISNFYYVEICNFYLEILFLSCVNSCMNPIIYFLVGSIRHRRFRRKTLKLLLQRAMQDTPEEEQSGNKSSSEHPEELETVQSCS

[9] = target: MRGPRX2 in CHEM-1 cells (human) (UniProt Q96LB1)
[10] = CHEM-1 cells recombinantly expressing MRGPRX2

COc1ccc2[nH]c(I)c(CCNC(C)=O)c2c1 [2-Iodomelatonin]
EC50 [1]: 0.085 nM | EC80 [1]: 5.1 nM | EC50 [2]: 0.084 nM | EC80 [2]: 4.2 nM

CXCL14(1-44): large CXCL14 fragment, inactive (SKCKCSRKGPKIRYSDVKKLEMKPKYPHCEEKMVIITTKSVSRY)
MRGPRX2 activation, Readout 1 [3]: 0.3% | MRGPRX2 activation, Readout 2 [3]: 0.6% | MRGPRX2 activation (in words) [3]: inactive

CC(C)C[C@H](NC(=O)CNC(=O)[C@H](Cc1ccccc1)NC(=O)[C@H](CO)NC(=O)[C@H](CC(N)=O)NC(=O)[C@H](Cc1c[nH]c2ccccc12)NC(=O)[C@H](CC(N)=O)NC(=O)[C@@H](N)Cc1ccc(O)cc1)C(=O)N[C@@H](CCCN=C(N)N)C(=O)N[C@@H](Cc1ccccc1)C(N)=O [Kisspeptin-10]
EC50 [4]: 63 nM | EC80 ([4]; reference agonist, KISS1R, U2OS, Arrestin): 1.1 µM

STKRFIK [CXCL14(57-63)]
EC50, β-arrestin recruitment at MRGPRX2 [5]: 50.4 µM | Emax, β-arrestin recruitment at MRGPRX2, normalized to the maximal effect of CXCL14 [5]: 53% | EC50, calcium mobilization at MRGPRX2 [6]: > 10 µM

B1: CXCL14(1-56/64-77): largest inactive CXCL14 fragment, lacks STKRFIK (peptide)
chain: SKCKCSRKGPKIRYSDVKKLEMKPKYPHCEEKMVIITTKSVSRYRGQEHCLHPKLQWYNAWNEKRRVYEE
MRGPRX2 activation, Readout 1 [3]: 10% | MRGPRX2 activation, Readout 2 [3]: 8% | MRGPRX2 activation (in words) [3]: inactive

KRFIKWY [CXCL14(59-65)]
EC50, calcium mobilization at MRGPRX2 [7]: 0.316 µM | Emax, calcium mobilization at MRGPRX2 [7]: 155% | EC50, calcium mobilization, 1321N1 astrocytoma cells expressing MRGPRB2 [8]: 1.26 µM | Emax, calcium mobilization, 1321N1 astrocytoma cells expressing MRGPRB2 [8]: 127%

B2: CXCL14(1-63): large CXCL14 fragment, inactive (peptide)
chain: SKCKCSRKGPKIRYSDVKKLEMKPKYPHCEEKMVIITTKSVSRYRGQEHCLHPKLQSTKRFIK
MRGPRX2 activation, Readout 1 [3]: 36% | MRGPRX2 activation, Readout 2 [3]: 38% | MRGPRX2 activation (in words) [3]: inactive

B3: CXCL14(1-32/56-77) (domain or fragment)
chain: SKCKCSRKGPKIRYSDVKKLEMKPKYPHCEEKQSTKRFIKWYNAWNEKRRVYEE
EC50, calcium mobilization, CHEM1 cells overexpressing MRGPRX2 [9]: 0.678 µM | Emax, calcium mobilization, CHEM1 cells overexpressing MRGPRX2, normalized to the maximal effect of CXCL14 [9]: 175%

KSVSRYRGQEHCLHPKLQSTKRFIKWYNAWNEKRRVYEE (domain or fragment) [CXCL14(39-77)]
EC50, calcium mobilization, CHEM1 cells overexpressing MRGPRX2 [9]: 0.68 µM | Emax, calcium mobilization, CHEM1 cells overexpressing MRGPRX2, normalized to the maximal effect of CXCL14 [9]: 164%

B4: CXCL14(15-77) (domain or fragment)
chain: SDVKKLEMKPKYPHCEEKMVIITTKSVSRYRGQEHCLHPKLQSTKRFIKWYNAWNEKRRVYEE
EC50 [3, 10]: 751 nM | pEC50 ([3]; replicate column 1): 6.175 | pEC50 ([3]; replicate column 2): 6.411 | EC50, calcium mobilization, CHEM1 cells overexpressing MRGPRX2 [9]: 0.751 µM

RFIKWY [CXCL14(60-65)]
EC50, calcium mobilization at MRGPRX2 [7]: 2.15 µM | Emax, calcium mobilization at MRGPRX2 [7]: 130% | EC50, calcium mobilization, 1321N1 astrocytoma cells expressing MRGPRB2 [8]: 2.32 µM | Emax, calcium mobilization, 1321N1 astrocytoma cells expressing MRGPRB2 [8]: 117%

B5: CXCL14(1-11/18-77) (domain or fragment)
chain: SKCKCSRKGPKKKLEMKPKYPHCEEKMVIITTKSVSRYRGQEHCLHPKLQSTKRFIKWYNAWNEKRRVYEE
improvement of potency compared to CXCL14 [3, 10]: 3 fold | EC50 [3, 10]: 379 nM | Emax, calcium mobilization assays ([3]; CHEM-1 cells recombinantly expressing MRGPRX2, normalized to the maximal effect of CXCL14): 205% | MRGPRX2 activation, Readout 1 [3]: 203% | MRGPRX2 activation, Readout 2 [3]: 208% | pEC50 ([3]; replicate column 1): 6.419 | pEC50 ([3]; replicate column 2): 6.454 | EC50, calcium mobilization, CHEM1 cells overexpressing MRGPRX2 [9]: 0.379 µM | Emax, calcium mobilization, CHEM1 cells overexpressing MRGPRX2, normalized to the maximal effect of CXCL14 [9]: 205%
